The target in the assay is Human γD-crystallin I90F (human, UniProt P07320 1-174, I90F). Nature of the assay: cell-based or functional assay.

B1: αB-crystallin, wild type (natural protein, UniProt P02511 1-175, looked up)
chain: MDIAIHHPWIRRPFFPFHSPSRLFDQFFGEHLLESDLFPTSTSLSPFYLRPPSFLRAPSWFDTGLSEMRLEKDRFSVNLDVKHFSPEELKVKVLGDVIEVHGKHEERQDEHGFISREFHRKYRIPADVDPLTITSSLSSDGVLTVNGPRKQVSGPERTIPITREEKPAVTAAPKK
With B1, the “suppression of aggregation on dilution out of 5 M GdnHCl (from maximum A350), αB in 5-fold molar excess” value came out at 70%.
